{"source": "patent US8697648B2", "about": "“Protein agent for diabetes treatment and β cell imaging” (Georgia State University Research Foundation, Inc., priority 2009, dated 2014)", "key": {"diabetic mice [1]": {"test_system": "diabetic mice", "experiment": "Four week daily treatment, blood glucose and body weight (Example 19)", "format": "in vivo", "details": "25 nmole/kg i.p. daily for 4 weeks", "protocol": "(§1) Agents (indicated in the figures 25 nmole/kg) were administrated by i.p. at daily at the same time 2:00 pm for 4 weeks. The animals were returned to the ages. Blood samples (about 20 ml) were draw daily at 5:00 pm for 4 weeks. Glucose in blood samples was measured. Blood glucose levels were plotted against day. Animal body weight was weighed daily before drawing blood. Average body weight of each group of six mice was plotted against days.\nas §1, with “The effects of the developed agent and PEGylated agents on blood glucose lowering in diabetic mice were examined in a four week treatment course. Agents” for “Agents”, “figures at” for “figures”, “i.p.” for “i.p. at”, “(−20 μl)” for “(about 20 ml)”"}, "[2]": {"test_system": "Diabetic mice (BKS.Cg-Lepr^db/db)", "experiment": "Blood glucose lowering in fed diabetic mice (Example 15)", "format": "in vivo", "protocol": "The animals were re-feed for 25 minutes 5 hours after drug administration and 35 minutes before the last time point of blood sample collection. The A Blood Glucose (mg/dl) was determined by calculating the difference between the measured blood glucose levels at any given time point and the initial blood glucose levels. The initial blood glucose levels were measured after feeding for 20 min and before the drug administration (time zero). The error bars represent standard deviations of measurements of eight mice.\nThe developed protein agent was tested to determine whether it had the in vivo capability of lowering blood glucose in diabetic subjects. Diabetic mice (BKS.Cg-Lepr^db/db, The Jackson Laboratory) were used as test subjects. A group of six animals first fasted for 6 hours. After fasting, the animals were fed for 30 minutes. The protein agent was administered after feeding by intraperitoneal injection at a dose of 25 nmole/kg. The animals were fed again for 30 mins, 5 hrs after agent administration. Blood samples were taken at different time points after administration of the agent. Glucose concentration in the blood samples was measured using a commercially available kit."}, "[3]": {"experiment": "NMR and fluorescence spectrum analyses in different pH conditions", "format": "physicochemical", "details": "pH 3, 5, 7, 9, 10", "protocol": "FIG. 8 is a graph showing the fluorescence spectrum of the protein Cal.GLP (50 μM) at various pH values. The spectrum at each pH was compared to that of completely denatured Cal.GLP in 8M Urea.\n(§2) The fusion protein Cal.GLP was incubated with 75% human serum for a time course (up to 48 hrs). The protein was then analyzed by SDS-PAGE and stained by coomassie blue."}, "RINm5F cells": {"test_system": "RINm5F cells", "experiment": "Immunostaining binding analysis, RINm5F cells (GLP-1R expressed)", "format": "cell-based, rat", "details": "Cal.GLP 10 μM, calbindin D9k 50 μM, 37° C., 30 mins", "protocol": "(§3) FIG. 10 is a series of digital images showing immunofluorescence staining of CHO or RINm5F cells that were treated by calbindin (50 μM) and Cal.GLP (10 μM). The cells were extensively washed after 30 min treatments under 37° C. in microscopic chamber slides and subsequently fixed. The cells were stained with the calbindin-specific antibody and visualized under confocal microscopy. The light shading represents antibody staining.\n(§4) To examine whether the developed protein indeed interacted with GLP-1R, the binding of the fusion protein with two cell lines, RINm5F and CHO cells was examined. It is well known that GLP-1R is expressed in RINm5F but not in CHO cells. Both RINm5F and CHO cells were incubated with fusion protein Cal.GLP (10 μM) or calbindin D9k (50 μM) at 37° C. for 30 mins. After extensive washing, the cells were fixed and subjected to immunostaining analyses using a rabbit polyclonal antibody against parental protein calbindin D9k. […] Similar binding analyses were carried out with RINm5F cells and a […] (αTC1)."}, "Stability to boiling": {"experiment": "Stability to boiling", "format": "physicochemical", "details": "boiling for 10 minutes", "protocol": "This property led to a simplified one ion-exchange column chromatography procedure of protein purification. The bacterial lysate was boiled for 10 minutes. Most bacterial proteins were precipitated due to denaturing by boiling. The fusion protein stayed in supernatant. The protein was then further purified by an ion-exchange column. Approximately 30-50 mg purified fusion protein per liter of bacterial culture were obtained."}, "CHO cells": {"test_system": "CHO cells", "experiment": "Immunostaining binding analysis, CHO cells (no GLP-1R)", "format": "cell-based", "details": "Cal.GLP 10 μM, calbindin D9k 50 μM, 37° C., 30 mins", "protocol": "as §3, §4"}, "[4]": {"experiment": "Stability in 75% human serum (SDS-PAGE)", "format": "in vitro ADME", "details": "48 hour", "protocol": "FIG. 7 is a digital image of an SDS-PAGE analysis of serum stability of the fusion protein Cal.GLP. […] Cal.GLP was incubated with 75% human serum (S+CA) in […] at 37° C. for 1 hour (lane 3), 3 hours (lane 4), and 24 hours (lane 5). The mixture was separated by 16% SDS-PAGE and visualized by coomassie blue staining. Lane 1 is 75% human serum (S) and lane 2 is Cal.GLP only (CA). Lane M is molecular weight markers.\nas §2"}, "[5]": {"experiment": "Protein serum stability test in mice serum (SDS-PAGE)", "format": "in vitro ADME", "details": "mice serum 1:1, 37° C., 24 hrs", "protocol": "FIG. 5 is a digital image of a gel analysis of a protein serum stability test. A 16% SDS-PAGE without DTT was used to analysis the protein level after incubation with mice serum for certain time. Lane 1: mice serum only; Lane 2: fusion protein only; Lanes 3-5: fusion protein incubated with 50% serum for 1 hr, 3 hrs, and 24 hrs respectively; Lane 6: PEGylated protein only; Lanes 7-9: PEGylated protein incubated with 50% serum for 1 hr, 3 hrs, and 24 hrs respectively.\nThe fusion protein and PEGylated protein were incubated with mice serum at a ratio 1:1, in 37° C. for 1 hr, 3 hrs and 24 hrs. Samples were then analyzed by 16% SDS-PAGE.\nThe fusion protein and PEGylated protein were incubated with mice serum at a 1:1 ratio at 37° C. for 1 hr, 3 hrs, and overnight. SDS-PAGE was then used to analyze the protein stability."}, "CD-1 mice": {"test_system": "CD-1 mice", "experiment": "Toxicity in healthy CD-1 mice", "format": "in vivo", "details": "one or two doses of 100 μl (6 mM), 14 days", "protocol": "One group of mice (7 mice per group) were injected with one dose of 100 μl of the agent (6 mM) and another group of animals were injected with two doses of the agent (100 μl of agent (6 mM)) with 8 hours time interval between the two injections. The animals were returned to their cages for 14 days. Among 14 tested mice, no mouse died. All animals behaved normally (no change in eating habits. No abnormal weight gain or loss. No abnormal appearance on fur)."}, "αTC1 cells": {"test_system": "αTC1 cells", "experiment": "Immunostaining binding analysis, αTC1 cells", "format": "cell-based", "protocol": "as §4"}, "diabetic mice [6]": {"test_system": "diabetic mice", "experiment": "Blood glucose and glucose-dependent insulin secretion after co-administration with glucose (Example 16)", "format": "in vivo", "details": "25 nmole/kg agent with 15 mmole/kg glucose i.p.", "protocol": "FIG. 12 is a pair of graphs showing the changes in Δ blood glucose (Upper panel) and Δ insulin (bottom panel) in a group of 8 diabetic mice at different time points after injection of 15 mmole/kg of glucose with 25 nmole/kg of different agents.\nThe effects of the developed agent on blood glucose lowering and stimulating of the glucose-dependent insulin secretion in diabetic mice were also examined. The animals first fasted for 6 hours. The protein agent (25 nmole/kg) and glucose (15 mmole/kg) were co-administrated via intraperitoneal injection with a group of eight diabetic mice. The blood glucose and insulin levels were measured at different time points. As controls, the same dose of glucose was administrated alone and co-administrated with the parental protein calbindin in separate groups of diabetic mice."}}, "data": [{"molecule": "Cal.GLP: GLP-1 grafted into human calbindin D9k by replacing a C-terminal helix; SEQ ID NO: 14 (protein, Fusion protein Cal.GLP) MSTKKSPEELKRIFEKYAAKEGDPDQLSKDELKLLIQAEFPSLLKGPNTLDDLFQELDKNGHAEGTFTSDVSSYLEGQAAKEFIAWLVKGRG", "values": [{"measurement": "body weight change", "setting": "diabetic mice [1]", "result": "did not result significant weight gain or lose"}, {"measurement": "lowering and stabilizing the blood glucose", "setting": "diabetic mice [1]", "result": "stronger effects in lowering and stabilizing the blood glucose"}, {"measurement": "blood glucose decrease and effective time compared to exendin-4", "setting": "[2]; 25 nmole/kg i.p.", "result": "bigger blood glucose decrease and significantly longer effective time"}, {"measurement": "drop of blood glucose levels", "setting": "[2]; 25 nmole/kg i.p., 4 hour time course", "result": "about 215 mg/dl"}, {"measurement": "blood glucose levels after re-feed", "setting": "[2]; 6 hours post administration, one hour after re-feed", "result": "minor increase in blood glucose levels"}, {"measurement": "folding in different pH conditions", "setting": "[3]", "result": "remained folded in wide ranges of pH conditions"}, {"measurement": "binding to RINm5F cells", "setting": "RINm5F cells", "result": "bound to RINm5F cells"}, {"measurement": "integrity and folding after boiling", "setting": "Stability to boiling", "result": "remained intact and folded"}, {"measurement": "binding to CHO cells", "setting": "CHO cells", "result": "not CHO cells"}, {"measurement": "integrity after incubation with human serum", "setting": "[4]", "result": "remained intact"}, {"measurement": "degradation in mice serum", "setting": "[5]", "result": "no degradation"}, {"measurement": "acute toxicity", "setting": "CD-1 mice", "result": "did not have acute toxicity"}, {"measurement": "mortality", "setting": "CD-1 mice; 14 mice", "result": "no mouse died"}, {"measurement": "binding to αTC1 cells", "setting": "αTC1 cells", "result": "not to αTC1 cells"}, {"measurement": "blood glucose lowering post glucose and drug administration", "setting": "diabetic mice [6]", "result": "dramatic blood glucose lowering"}, {"measurement": "duration of increase in insulin and decrease in glucose", "setting": "diabetic mice [6]", "result": "~2", "unit": "h"}, {"measurement": "glucose lowering and duration compared to exendin-4", "setting": "diabetic mice [6]", "result": "larger glucose lowering in longer duration"}]}]}
